{
  "source": "paper PMC12355045",
  "origin": "cited, not measured here",
  "biological_target": "hemoglobin αβ dimer (Homo sapiens) (UniProt P69905)",
  "data": [
    {"substance": "hemoglobin αβ dimer (from UniProt P69905)", "values": [
      {"measurement": "Kd", "result": 1000, "unit": "nM"}
    ]}
  ]
}
